According to publication PMC8131916:

Assays:
[1] = target: MM_0014, cis-prenyltransferase from Methanosarcina mazei (tag-free) (Methanosarcina mazei); assay: crystal structure; substrate-free MM_0014, hanging drop, Index No. 64 reagent with glycerol 3:1, 25 °C; space group C222_(1), two protein molecules per asymmetric unit; the same crystals soaked with IPP or DMAPP
[2] = target: MM_0014, cis-prenyltransferase from Methanosarcina mazei (tag-free) (Methanosarcina mazei); assay: crystal structure; MM_0014 cocrystallised with FPP and MgCl2 (co-FG), Index No. 89 reagent with glycerol 3:1, 20 °C; space group P2_(1)2_(1)2_(1), eight protein molecules per asymmetric unit; the same crystals soaked with DMAPP

- stoichiometry N [1]: 2
- stoichiometry N [2]: 2
Substance: MM_0014, cis-prenyltransferase from Methanosarcina mazei (tag-free) (enzyme)
